Data published in the supplement of paper PMC9170038.

Test system: MS2 coat protein
Experiment: apparent KD of MS2 coat protein; higher = weaker reporter binding
Settings: Eterna round: R107
In short: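 Designed RNA switches, transcribed on-chip from Illumina sequencing clusters, were titrated with SNAP-549-labelled MS2 coat protein from 0.7 or 1.5 nM to 3 µM in twofold steps. The solution was 100 mM Tris-HCl pH 7.5, 80 mM KCl, 4 mM MgCl2, with constant ligand or without it. Apparent KD is the median over each design's normalised cluster binding-curve fits.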

[1] = input ligand: theophylline 20 uM
[2] = input ligand: theophylline 2 mM
[3] = input ligand: tryptophan 2.4 mM

| Sequence | apparent KD of MS2 coat protein (input ligand: arginine 13.2 mM) | apparent KD of MS2 coat protein [1] | apparent KD of MS2 coat protein [2] | apparent KD of MS2 coat protein (input ligand: none) | apparent KD of MS2 coat protein [3] |
| --- | --- | --- | --- | --- | --- |
| GGAUAGGACACGGCCGCCACUGCCUAGGAUACUAGCAACAUUUGGGUACAUGAGGAUCACCCAUGUAGGACCGGGUGUCCUAUCG | 38.5 nM | 70.9 nM | 70.3 nM | – | – |
| GGAUAGGACAGAAGGAGCGGCAUGGCAGAAACUGCAAUCCUCCUACACGAGGAUCACCCGUGUCAGGUAGGUCGCUGUCCUAUCG [ArgXB 13 #Zipper #MS2Left #StaticStem #Blueprint] | 18.5 nM | 20.4 nM | 19 nM | 15.1 nM | 15 nM |
| GGCACAUAGUCGGCCGCCACUACUAACACCUCAGACAACAUGAGGAUCACCCAUGUUCCAGAGUGUAGGACCGGGACUAUGUGCC [Minonka] | 11.7 nM | 13.7 nM | 12.2 nM | – | – |
| GGCGGACUUAUAGAUACCAGCACAUGAGGAUCACCCAUGUUUGGUCGCACCUCAGUCCUGUGCCCUUGGCAGCUAUGAUAGAUUU [Leaatge] | 16.9 nM | 33.4 nM | – | – | 16.1 nM |
| GGCGUGGUCGGAAGGAGCGACAUGAGGAUCACCCAUGUCUCCCGUUAUGGGAGUUCCUUAGGUCAGGUAGGUCGCCGACUGCGGC [#1 Exclusion - Arginine B Attempt #22 (Inspired by Omei)] | 41.6 nM | 123 nM | 326 nM | 231 nM | 159 nM |
| GGCUAACAUGAGGAUCACCCAUGUAUUGAUACCAGUAUUUGAAAAUACCCUUGGCAGCAAAUGAAGAGCGUAGCAGGGUCGAUUA [theeternabot_sameState_MS2_Theo_A_7] | 10 nM | 17 nM | – | – | 12.6 nM |
| GGGAGGGAGGCGGCCGCCACUGAUUUUCAUAUAUAUAUAACAUGAGGAUCACCCAUGUAGAUAUACAGGACCGGGCCUUUUUUUU [aaaG] | 14.6 nM | 33.8 nM | 22.8 nM | – | – |
| GGGCCUAUAAGCAGGCCCACAGCGGGUGAUACCAGCAAUAAAACUUGCCCUUGGCAGCACACAGCUACAUGAGGAUCACCCAUGU [Beator] | 41.1 nM | 72.9 nM | 70.6 nM | 45.1 nM | 62.4 nM |
| GGGCGAGUGGACCGGCGUGCUCCGCUCCGUCGAGGACCGGUACGGCCGCCACUCGACAUGAGGAUCACCCAUGUGCGAGCUCGCG [#1 Exclusion - Tryptophan A Attempt #14 (HarryS)] | 32.7 nM | 114 nM | 82.4 nM | 77.5 nM | 86 nM |
| GGGCGUGUGGUGCGGCGUGUUCCGCUCCGUCGAGGACCGGUACGGCCGCCACUCGACAUGAGGAUCACCCAUGUGCGAGCGCGCG [#1 Exclusion - Tryptophan A Attempt #8 (HarryS)] | 13.2 nM | 13.2 nM | 11.7 nM | 11.5 nM | 19.2 nM |
| GGGUAAGAUCCGGAUACCAGCGAACAUGAGGAUCACCCAUGUGAAAUAAGAUAGACUAAACGCCCUUGGCAGCCGAAAUAGCGUU [Same State Theophylline B GF 4] | 17.9 nM | 84.7 nM | 48.9 nM | 46.6 nM | 44.1 nM |
| GGGUAUGAUCCGGAUACCAGCGAACAUGAGGAUCACCCAUGUGACCUAAGAUAGGCUCUACGCCCUUGGCAGCCGCGAUCGCAGA [Same State Theophylline B GF9] | 20.4 nM | 23.2 nM | 13.3 nM | 22.3 nM | 24.7 nM |
| GGGUAUGAUCCGGAUACCAGCGAACAUGAGGAUCACCCAUGUGACCUAAGAUAGGCUCUACGCCCUUGGCAGCCGCGAUCGCGUU [Same State Theophylline B GF8] | 21.7 nM | 32 nM | – | – | 29 nM |
| GGGUGGUAGGCGGCCGCCACUGAUUUUUAUAUAUAUAUAACAUGAGGAUCACCCAUGUAGAUAUGCAGGACCGGGCCUGUUGUUU [aaaM] | 21.7 nM | 37.8 nM | 46.1 nM | 25 nM | 28.3 nM |
| GGGUGGUAGGCGGCCGCCACUGAUUUUUAUUUAUAGAUGACAUGAGGAUCACCCAUGUUUAUAUGCAGGACCGGGCCUGUUGUGG [aaaQ] | 12 nM | 22.5 nM | 17.6 nM | – | – |
| GGGUGUGAUCCGGAUACCAGCGAACAUGAGGAUCACCCAUGUGACCUGAGAUCGGCUCUACGCCCUUGGCAGCCGCGAUCGCAGG [Same State Theophylline B GF12] | – | 105 nM | 37.9 nM | 18.8 nM | 13.1 nM |
| GGUCUCGAGGGCGAUACCAGCUUGAUCGUACUGGCCUGGUACAUGAGGAUCACCCAUGUAAGCCCUUGGCAGCGCGCUCGAGACC [#1 Exclusion - Theophylline B Attempt #6 (HarryS)] | 7.85 nM | 18.5 nM | 29.3 nM | 11 nM | 17 nM |
| GGUGUAUCCAUCGAUACCAGCCACCACCGAUAGACCACAUGAGGAUCACCCAUGUUGGGUGGCCCUUGGCAGCGGUGGCUGUGCC [Same State - Theophylline B Attempt #3 (HarryS)] | 79.9 nM | 592 nM | – | – | 353 nM |
| GGUUACUCUACGGCCGCCACUGAUUAAUUAUAAACCUGUACAUAAACAUGAGGAUCACCCAUGUACAGGACCGGGUAGUGUAACC [Tryptophan B 9] | 30.5 nM | 46.9 nM | 39.1 nM | – | – |
